According to the supplement of paper PMC10065799, “High-throughput profiling of sequence recognition by tyrosine kinases and SH2 domains using bacterial peptide display” (eLife, 2023):

Test system: AncSZ
Assay: phosphorylation enrichment, bacterial display (enrichment ratio); higher = better substrate or ligand; peptides without Tyr show the background
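Further: 11-residue human phosphosite peptides and single-mutation variants displayed on the E. coli surface, counted by deep sequencing, each peptide's frequency after selection divided by its frequency in the unselected input library; frequency after pTyr selection over input frequency; kinase dosed for 20-30% of maximal phosphorylation in three min.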

Sequence | phosphorylation enrichment
FRPPYYHRNCM [HGD_Y334] | 0.708
LEGKEYRMSGE [KRT3_Y511_E509K] | 0.73
PLDGEYFTLQV [TP53_Y327_I332V] | 3.87
DNEALYDTCFR [TUBB2B_Y208_I210T] | 2.34
AALVQYYMEHH [PTPN11_Y80_E76A] | 0.937
INMKEYCKKDY [NTN1_Y490_K489E] | 0.824
SLEKGYELPDG [ACTC1_Y242_S241G] | 0.994
RYVTRSIYNRE [HLA-DQB1_Y62_Y62S] | 0.772
CENCHYPILPL [LCK_Y25_V28L] | 0.678
MHRRQYELLGG [GNAS_Y391_L388R] | 0.577
DYSLKYATDIP [APC_Y1183] | 1.35
EIKLAYRRRPP [GRIN2B_Y1109_E1106K] | 0.735
NIEPIYLNMLL [ATR_Y317_V316I] | 1.85
AGIVDYNIIGW [MYH7_Y588] | 1.07
VLVSQYEKLNA [AMZ2_Y26] | 0.619
FSAPNCCYRCG [PPP2CA_Y265_Y265C] | 1
RYVSRYIYNRE [HLA-DQB1_Y62_T60S] | 1.29

Sequence | phosphorylation enrichment
IFSGIYFKPES [L2HGDH_Y102_H98Y_YF] | 1.51
YENGEYIIRQG [PRKG1_Y247] | 1.11
RLSVDCGKKSK [TUBA4A_Y161_Y161C] | 0.684
KSVITYSPTTG [ITGB3BP_Y32] | 0.49
CTTIHYIYMCN [TP53_Y234_N235I] | 0.728
KMKGEYYRYLA [YWHAG_Y130_D129E] | 0.981
LSPPVYLTNEW [NRK_Y885_I880L] | 0.935
LIEQAYDNLHE [PRPF8_Y871_P874L] | 1.44
FCRIMYDIFPF [INTS13_Y67_YF] | 1.71
GRTNIYNNKKD [SLC26A3_Y520_K521N] | 0.418
LISVSYDDWDY [GRIN2A_Y281] | 2.2
ETAENYLGFTA [HSPA9_Y181_H184Y_YF] | 1.17
MKKMHYVDPDH [ST3GAL5_Y99] | 0.512
DASAVYLHDFQ [PLCG2_Y242] | 0.746
DFPGIYSGYDD [POLR1C_Y33_N32I] | 1.09
IVAREYYSDAD [CAMK2A_Y106_E109D] | 1.04

Biological target: Hck (UniProt P08631)
Sequence (P08631 whole entry, looked up): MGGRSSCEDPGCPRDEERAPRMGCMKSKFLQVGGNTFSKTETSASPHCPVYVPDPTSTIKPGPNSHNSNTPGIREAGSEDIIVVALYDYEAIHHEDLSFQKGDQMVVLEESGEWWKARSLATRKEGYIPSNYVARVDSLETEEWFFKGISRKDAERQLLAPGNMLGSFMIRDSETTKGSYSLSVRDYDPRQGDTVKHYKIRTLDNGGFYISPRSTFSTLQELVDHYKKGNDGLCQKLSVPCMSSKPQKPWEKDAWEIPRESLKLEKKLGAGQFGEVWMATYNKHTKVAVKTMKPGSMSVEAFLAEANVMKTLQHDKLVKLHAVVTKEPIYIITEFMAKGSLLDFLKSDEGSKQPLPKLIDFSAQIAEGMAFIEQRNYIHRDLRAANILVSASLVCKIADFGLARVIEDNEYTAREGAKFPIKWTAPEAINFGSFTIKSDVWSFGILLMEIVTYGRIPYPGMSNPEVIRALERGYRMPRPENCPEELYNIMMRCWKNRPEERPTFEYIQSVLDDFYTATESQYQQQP
Assay: as above

Sequence | phosphorylation enrichment
FRPPYYHRNCM [HGD_Y334] | 0.432
LEGKEYRMSGE [KRT3_Y511_E509K] | 0.409
PLDGEYFTLQV [TP53_Y327_I332V] | 2.74
DNEALYDTCFR [TUBB2B_Y208_I210T] | 6.09
AALVQYYMEHH [PTPN11_Y80_E76A] | 0.813
INMKEYCKKDY [NTN1_Y490_K489E] | 0.477
SLEKGYELPDG [ACTC1_Y242_S241G] | 0.488
RYVTRSIYNRE [HLA-DQB1_Y62_Y62S] | 0.682
CENCHYPILPL [LCK_Y25_V28L] | 0.746
MHRRQYELLGG [GNAS_Y391_L388R] | 0.409
DYSLKYATDIP [APC_Y1183] | 0.6
EIKLAYRRRPP [GRIN2B_Y1109_E1106K] | 0.789
NIEPIYLNMLL [ATR_Y317_V316I] | 6.92
AGIVDYNIIGW [MYH7_Y588] | 0.497
VLVSQYEKLNA [AMZ2_Y26] | 0.467
FSAPNCCYRCG [PPP2CA_Y265_Y265C] | 0.55
RYVSRYIYNRE [HLA-DQB1_Y62_T60S] | 0.551

Sequence | phosphorylation enrichment
IFSGIYFKPES [L2HGDH_Y102_H98Y_YF] | 2.64
YENGEYIIRQG [PRKG1_Y247] | 0.589
RLSVDCGKKSK [TUBA4A_Y161_Y161C] | 0.462
KSVITYSPTTG [ITGB3BP_Y32] | 0.353
CTTIHYIYMCN [TP53_Y234_N235I] | 0.322
KMKGEYYRYLA [YWHAG_Y130_D129E] | 1.09
LSPPVYLTNEW [NRK_Y885_I880L] | 0.651
LIEQAYDNLHE [PRPF8_Y871_P874L] | 1.15
FCRIMYDIFPF [INTS13_Y67_YF] | 3.11
GRTNIYNNKKD [SLC26A3_Y520_K521N] | 0.365
LISVSYDDWDY [GRIN2A_Y281] | 0.666
ETAENYLGFTA [HSPA9_Y181_H184Y_YF] | 0.53
MKKMHYVDPDH [ST3GAL5_Y99] | 0.367
DASAVYLHDFQ [PLCG2_Y242] | 0.622
DFPGIYSGYDD [POLR1C_Y33_N32I] | 3.4
IVAREYYSDAD [CAMK2A_Y106_E109D] | 0.525

Biological target: EPHB2 (UniProt P29323)
Sequence (P29323 whole entry, looked up): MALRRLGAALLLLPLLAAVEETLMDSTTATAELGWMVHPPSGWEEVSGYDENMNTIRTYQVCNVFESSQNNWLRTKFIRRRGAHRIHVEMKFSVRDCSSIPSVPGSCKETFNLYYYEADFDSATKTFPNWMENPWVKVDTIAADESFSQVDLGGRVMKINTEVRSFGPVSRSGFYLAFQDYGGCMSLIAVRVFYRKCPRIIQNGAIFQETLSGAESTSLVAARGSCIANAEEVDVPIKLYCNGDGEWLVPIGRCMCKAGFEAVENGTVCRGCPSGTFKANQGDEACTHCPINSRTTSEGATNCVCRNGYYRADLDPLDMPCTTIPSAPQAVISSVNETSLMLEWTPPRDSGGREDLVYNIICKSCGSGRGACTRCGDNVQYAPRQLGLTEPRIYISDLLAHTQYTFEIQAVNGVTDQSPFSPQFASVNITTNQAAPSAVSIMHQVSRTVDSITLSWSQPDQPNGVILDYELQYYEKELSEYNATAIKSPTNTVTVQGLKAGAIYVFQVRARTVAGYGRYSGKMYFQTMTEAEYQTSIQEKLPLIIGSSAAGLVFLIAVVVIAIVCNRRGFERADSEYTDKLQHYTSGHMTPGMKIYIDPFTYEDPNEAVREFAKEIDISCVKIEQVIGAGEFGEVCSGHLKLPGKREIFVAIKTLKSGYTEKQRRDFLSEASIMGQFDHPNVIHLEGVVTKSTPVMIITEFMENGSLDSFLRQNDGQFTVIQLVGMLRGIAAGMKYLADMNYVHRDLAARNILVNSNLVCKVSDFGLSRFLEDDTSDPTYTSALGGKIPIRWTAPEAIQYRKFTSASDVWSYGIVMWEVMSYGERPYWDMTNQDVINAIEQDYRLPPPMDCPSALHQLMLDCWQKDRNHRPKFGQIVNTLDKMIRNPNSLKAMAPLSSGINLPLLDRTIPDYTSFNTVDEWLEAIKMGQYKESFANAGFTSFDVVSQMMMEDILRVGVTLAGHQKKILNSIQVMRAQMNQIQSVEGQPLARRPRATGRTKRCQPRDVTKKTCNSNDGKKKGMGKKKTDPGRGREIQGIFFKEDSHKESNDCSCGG
Assay: as above

Sequence | phosphorylation enrichment
FRPPYYHRNCM [HGD_Y334] | 0.449
LEGKEYRMSGE [KRT3_Y511_E509K] | 0.333
PLDGEYFTLQV [TP53_Y327_I332V] | 1.44
DNEALYDTCFR [TUBB2B_Y208_I210T] | 2.71
AALVQYYMEHH [PTPN11_Y80_E76A] | 1.17
INMKEYCKKDY [NTN1_Y490_K489E] | 0.462
SLEKGYELPDG [ACTC1_Y242_S241G] | 0.499
RYVTRSIYNRE [HLA-DQB1_Y62_Y62S] | 0.389
CENCHYPILPL [LCK_Y25_V28L] | 0.422
MHRRQYELLGG [GNAS_Y391_L388R] | 0.426
DYSLKYATDIP [APC_Y1183] | 0.565
EIKLAYRRRPP [GRIN2B_Y1109_E1106K] | 0.617
NIEPIYLNMLL [ATR_Y317_V316I] | 14.5
AGIVDYNIIGW [MYH7_Y588] | 0.431
VLVSQYEKLNA [AMZ2_Y26] | 0.341
FSAPNCCYRCG [PPP2CA_Y265_Y265C] | 0.676
RYVSRYIYNRE [HLA-DQB1_Y62_T60S] | 0.95

Sequence | phosphorylation enrichment
IFSGIYFKPES [L2HGDH_Y102_H98Y_YF] | 1.35
YENGEYIIRQG [PRKG1_Y247] | 0.555
RLSVDCGKKSK [TUBA4A_Y161_Y161C] | 0.619
KSVITYSPTTG [ITGB3BP_Y32] | 0.49
CTTIHYIYMCN [TP53_Y234_N235I] | 0.461
KMKGEYYRYLA [YWHAG_Y130_D129E] | 0.717
LSPPVYLTNEW [NRK_Y885_I880L] | 0.851
LIEQAYDNLHE [PRPF8_Y871_P874L] | 0.877
FCRIMYDIFPF [INTS13_Y67_YF] | 2.61
GRTNIYNNKKD [SLC26A3_Y520_K521N] | 0.339
LISVSYDDWDY [GRIN2A_Y281] | 0.827
ETAENYLGFTA [HSPA9_Y181_H184Y_YF] | 0.633
MKKMHYVDPDH [ST3GAL5_Y99] | 0.311
DASAVYLHDFQ [PLCG2_Y242] | 0.561
DFPGIYSGYDD [POLR1C_Y33_N32I] | 0.652
IVAREYYSDAD [CAMK2A_Y106_E109D] | 0.647

Test system: Fer (mouse)
Assay: as above

Sequence | phosphorylation enrichment
FRPPYYHRNCM [HGD_Y334] | 0.477
LEGKEYRMSGE [KRT3_Y511_E509K] | 0.455
PLDGEYFTLQV [TP53_Y327_I332V] | 0.842
DNEALYDTCFR [TUBB2B_Y208_I210T] | 8.38
AALVQYYMEHH [PTPN11_Y80_E76A] | 0.415
INMKEYCKKDY [NTN1_Y490_K489E] | 0.615
SLEKGYELPDG [ACTC1_Y242_S241G] | 0.436
RYVTRSIYNRE [HLA-DQB1_Y62_Y62S] | 0.495
CENCHYPILPL [LCK_Y25_V28L] | 0.423
MHRRQYELLGG [GNAS_Y391_L388R] | 0.307
DYSLKYATDIP [APC_Y1183] | 0.573
EIKLAYRRRPP [GRIN2B_Y1109_E1106K] | 0.98
NIEPIYLNMLL [ATR_Y317_V316I] | 13.3
AGIVDYNIIGW [MYH7_Y588] | 0.439
VLVSQYEKLNA [AMZ2_Y26] | 0.417
FSAPNCCYRCG [PPP2CA_Y265_Y265C] | 0.547
RYVSRYIYNRE [HLA-DQB1_Y62_T60S] | 0.844

Sequence | phosphorylation enrichment
IFSGIYFKPES [L2HGDH_Y102_H98Y_YF] | 0.459
YENGEYIIRQG [PRKG1_Y247] | 0.418
RLSVDCGKKSK [TUBA4A_Y161_Y161C] | 0.571
KSVITYSPTTG [ITGB3BP_Y32] | 0.401
CTTIHYIYMCN [TP53_Y234_N235I] | 0.478
KMKGEYYRYLA [YWHAG_Y130_D129E] | 0.409
LSPPVYLTNEW [NRK_Y885_I880L] | 0.636
LIEQAYDNLHE [PRPF8_Y871_P874L] | 0.821
FCRIMYDIFPF [INTS13_Y67_YF] | 1.18
GRTNIYNNKKD [SLC26A3_Y520_K521N] | 0.326
LISVSYDDWDY [GRIN2A_Y281] | 4.25
ETAENYLGFTA [HSPA9_Y181_H184Y_YF] | 0.486
MKKMHYVDPDH [ST3GAL5_Y99] | 0.32
DASAVYLHDFQ [PLCG2_Y242] | 0.474
DFPGIYSGYDD [POLR1C_Y33_N32I] | 0.687
IVAREYYSDAD [CAMK2A_Y106_E109D] | 0.589
